Data set [1] in a line: folding stability dG unfold from trypsin proteolysis; higher = more stable. In outline: (§1)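 Designed mini-proteins with no cysteine and under 80 residues were kept only if AlphaFold2 dimer inter-PAE was above 15. In a PA-tagged cDNA display construct, they were digested with trypsin and chymotrypsin and then sequenced. K50 was inferred by Bayesian fitting of counts, and unfolding free energy was derived per protease or combined against a sequence-predicted unfolded-state K50 and a shared folded-state K50.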

Data set [2] in a line: folding stability dG unfold (combined trypsin and chymotrypsin); higher = more stable. In outline:
as §1

Data set [3] can be described thus: folding stability dG unfold from chymotrypsin proteolysis; higher = more stable. In short, it runs like this:
as §1

± gives the half width of the 95% confidence interval.

Regarding “SAGGSAGGETITVKVKIKNEDGEEIEVEAEVTKNKDGSYTITIKNKETGETKVVPNATIEEVEPSAGGSAGG [r6_254_TrROS_Hall]”, the entries for the “folding stability dG unfold” value in data set [1], in data set [2] and in data set [3] were 1.59 ± 0.12 kcal/mol, 1.93 ± 0.18 kcal/mol and 2.19 ± 0.18 kcal/mol, respectively.
As for “SAGGSAGGGDLVVYRLEVRRFEPGTGRLVETRSRTVVVPKEDLPELLERIPPGYEVLRIEAFPESAGGSAGG [r6_776_TrMRF]”, the “folding stability dG unfold” value in data set [1] was 0.636 ± 0.067 kcal/mol; in data set [2], 0.494 ± 0.11 kcal/mol; in data set [3] it was 0.361 ± 0.16 kcal/mol.
“SAGGSAGGGFVTIEVEITEVVGKTKDEEGKPHPGDPNDPSGYVKLPPFPVKVPSSPEEYAALLSSAGGSAGG [r6_219_JUSTAS]”: the figures for the “folding stability dG unfold” value in data set [1], in data set [2] and in data set [3] were 0.551 ± 0.076 kcal/mol, 0.301 ± 0.16 kcal/mol and -0.31 ± 0.62 kcal/mol, respectively.
Take “SAGGSAGGGIEEELRRVLPEDATVTIEEVPERPLLVVTVTFPERAETRTFTFSPESPEKLIEALSAGGSAGG [r6_612_JUSTAS]”: the “folding stability dG unfold” value in data set [1] is 0.82 ± 0.049 kcal/mol; in data set [2], 0.679 ± 0.12 kcal/mol; in data set [3], 0.628 ± 0.12 kcal/mol.
For “SAGGSAGGGITAKEAAELLEKYLKEKGYDYEVKIEEVDPVNPTVKITVTFPDGSKLEITLPIVDSAGGSAGG [r6_617_TrMRF]” the same measures were 3.02 ± 0.16 kcal/mol, 3.09 ± 0.2 kcal/mol and 3.21 ± 0.34 kcal/mol.
For “SAGGSAGGGKVKVELEPLEDDSYRLRITVELPDGSKIEKPVILPSNVPPELSAEKVAEEILKKESAGGSAGG [r6_895_TrMRF]” the same measures were 0.378 ± 0.089 kcal/mol, 0.228 ± 0.24 kcal/mol and -0.117 ± 0.34 kcal/mol.
Turning to “SAGGSAGGGMGPASFYIVTVDPNNPNVTKVESLSPSVDISLYRKKPFPIKTFSASNIEKLLKELSAGGSAGG [r6_864_JUSTAS]”, the entries for the “folding stability dG unfold” value in data set [1], in data set [2] and in data set [3] were 0.334 ± 0.12 kcal/mol, 0.619 ± 0.11 kcal/mol and 0.791 ± 0.18 kcal/mol, respectively.
Consider “SAGGSAGGGMLNGLLEKLLLAEPVEVDPVTTTVTPSPNGTVTTTPVYSTADDSVLTETQTTPVASAGGSAGG [r6_326_JUSTAS]”, for which the “folding stability dG unfold” value is 0.341 ± 0.057 kcal/mol in data set [1], -0.0634 ± 0.14 kcal/mol in data set [2] and -0.574 ± 0.19 kcal/mol in data set [3].
Consider “SAGGSAGGGMNATPKKIKVTITITDPSGNKTTVTREFDSEEEAEKFVKELLPPNRSYTVTYEPESAGGSAGG [r6_290_JUSTAS]”, for which the “folding stability dG unfold” value in data set [1] came to 2.94 ± 0.074 kcal/mol; in data set [2] it was 2.56 ± 0.068 kcal/mol; in data set [3], 2.075 ± 0.017 kcal/mol.
With “SAGGSAGGGMSFTLTSEKKVPGVNVTLTTVTGPGVTITYDPATGKATVEFPDSVTTVPLSSITTSAGGSAGG [r6_512_JUSTAS]”, the “folding stability dG unfold” value in data set [1] came out at 0.573 ± 0.024 kcal/mol; in data set [2], 0.597 ± 0.099 kcal/mol; in data set [3] it was 0.359 ± 0.16 kcal/mol.
The matching figures for “SAGGSAGGGMSLEAPIGEIEKPEGTDTVVITVYENGKWHTIPLPNFKNIKIEKDPNSDVVTILLSAGGSAGG [r6_806_JUSTAS]”: 1.29 ± 0.1 kcal/mol, 1.52 ± 0.18 kcal/mol and 1.71 ± 0.13 kcal/mol.
For “SAGGSAGGGMTPEEARALAEAAGYEDVEVTVLSRDPENNVTVVEVTARAPGGGGAASVGTYTAPSAGGSAGG [r6_699_JUSTAS]” the same measures were -0.77 ± 0.21 kcal/mol, -0.396 ± 0.18 kcal/mol and -0.245 ± 0.27 kcal/mol.
Consider “SAGGSAGGGNWERVEFTFTKRVYDPKNGKPMKDVMVEIDVYRDPNEGALEIEIEMPPGFDYIMISAGGSAGG [r6_206_TrROS]”, for which the “folding stability dG unfold” value in data set [1] worked out at 2.79 ± 0.28 kcal/mol; in data set [2], 3.93 ± 0.29 kcal/mol; in data set [3] it was 4.23 ± 0.23 kcal/mol.
Consider “SAGGSAGGGPKVTVEVTESKVYELEDGSYVAVNTYTVTFEAEGKTVKVTFYRTFPKGFAGGPFSSAGGSAGG [r6_799_TrMRF]”, for which the “folding stability dG unfold” value in data set [1] was found to be 2.28 ± 0.064 kcal/mol; in data set [2] it was 2.42 ± 0.17 kcal/mol; in data set [3], 2.57 ± 0.14 kcal/mol.
For the sequence “SAGGSAGGGRAEILVEPVEPEPRARVVIRLEGSGRLVVFPVEEPLEPEHVEEAVEAAIKALEENSAGGSAGG [r6_330_TrMRF]”, the entries for the “folding stability dG unfold” value in data set [1], in data set [2] and in data set [3] were -0.26 ± 0.17 kcal/mol, 0.393 ± 0.065 kcal/mol and 0.647 ± 0.013 kcal/mol, respectively.
The matching figures for “SAGGSAGGGSLSKPKKYELVATFTFPGTVEEAKEFLEKLLPEDWKVEIEETPDFLKIKLYKRLDSAGGSAGG [r6_952_TrMRF]”: 4.07 ± 0.13 kcal/mol, 4.06 ± 0.063 kcal/mol and 4.07 ± 0.049 kcal/mol.
The matching figures for “SAGGSAGGGSSITPVEVTPLPEDKYRVLIRITTYLPGGKPRTEEIEVEMPPDETAEEAAARVLSSAGGSAGG [r6_329_JUSTAS]”: 0.341 ± 0.044 kcal/mol, 0.367 ± 0.075 kcal/mol and 0.29 ± 0.11 kcal/mol.
In the case of “SAGGSAGGGYAEFETTAVLPDGRVYRAKIVLSPDPDIVKIRLFSPEGEEEIELHPDDPLLLTPGSAGGSAGG [r6_926_TrMRF]”, the “folding stability dG unfold” value was found to be 1.46 ± 0.034 kcal/mol in data set [1], 1.62 ± 0.051 kcal/mol in data set [2] and 1.66 ± 0.062 kcal/mol in data set [3].
